# B1: ovalbumin (protein, UniProt P01012 2-386, looked up)
# Ovalbumin: GSIGAASMEFCFDVFKELKVHHANENIFYCPIAIMSALAMVYLGAKDSTRTQINKVVRFDKLPGFGDSIEAQCGTSVNVHSSLRDILNQITKPNDVYSFSLASRLYAEERYPILPEYLQCVKELYRGGLEPINFQTAADQARELINSWVESQTNGIIRNVLQPSSVDSQTAMVLVNAIVFKGLWEKAFKDEDTQAMPFRVTEQESKPVQMMYQIGLFRVASMASEKMKILELPFASGTMSMLVLLPDEVSGLEQLESIINFEKLTEWTSSNVMEERKIKVYLPRMKMEEKYNLTSVLMAMGITDVFSSSANLSGISSAESLKISQAVHAAHAEINEAGREVVGSAEAGVDAASVSEEFRADHPFLFCIKHIATNAVLFFGRCVSP
# notes: model protein molecule, Mw of 45 kDa
# Key:
# [1] = test system: rat eye; experiment: In vivo implant formation of ISPcI in rat eye following intravitreal injection; conditions: day 1, day 6 and day 18
# Procedure: 2 μl of ISPcI gel formulation was injected by intravitreal route in the rat eye, following by UV light exposure for 2 min, fundus images were collected to locate the implant formation and image model dye release within the eye. Likewise PPcI were administered by subconjunctival route and any surface inflammation monitored by experienced ophthalmologist
# [2] = In vitro drug release from in situ photocrosslinked implants (ISPcI) in PBS
# Procedure: (§1) For drug release studies selected ISPcI gel formulation were injected (approx. 0.2 g or 0.1 g) into desired amount of PBS (pH 7.3±0.2). Sink conditions were maintained for each drug type. ISPcI were formed by exposing them immediately to 365 nm using bench-top UV light (at 3.1±0.1 mW/cm^2, CAMAG, Muttenz, Switzerland) for varying periods of time in PBS. The implants were stored in an incubator (37° C. and 60 rpm) for the duration of the release study. At predetermined time intervals the entire PBS medium was removed and replaced with equal amount of fresh PBS. All the experiments were carried out in triplicates. The concentration of released drug molecule in the PBS samples was analyzed as described below.
# BSA, OVA and bevacizumab (Avastin) were assayed using a Pierce™ Micro BCA protein assay kit (Thermo Scientific, Hampton, UK). To a microwell, 150 μL of BSA, OVA or BVZ standard or release sample was pipetted and 150 μL of working reagent was added. A plate shaker ensured thorough mixing. The 96-well plate was covered and incubated for 2 hours at 37° C. Once the plate was allowed to return to room temperature, a UV plate reader measured the absorbance at 562 nm. The average absorbance reading of the blank was subtracted from those of the standards/samples.
# [3] = In vitro drug release from preformed photocrosslinked implants (PPcI) in PBS; type: physicochemical; conditions: PPcI 30% w/w PLGA 75/25 / PEGDA 700, 5 runs, lamp intensity 100%, after 266 days
# Procedure: as §1
# Analysis of DEX and TA samples were carried out using reversed-phase HPLC with UV detection (Agilent 1260 Infinity Quaternary System) using an Agilent Zorbax Eclipse Plus 250 mm C18 column (250 mm length, 4.6 mm internal diameter and 5 μm particle size) and an Agilent Zorbax guard column held at 25° C. […] Analysis required a mobile phase of 60% water and 40% acetonitrile with UV absorbance at 270 nm (for DEX) and 236 nm (for TA) at a flow rate of 1 ml/min and 0.8 ml/min respectively. Analysis of FITC-Dextran 150 kDa release was conducted using a fluorescence spectrophotometer. […] Fluorescence excitation occurred at 480 nm with emission measured at 520 nm. […]
# [4] = ELISA test for bioactivity of OVA released from ISPcI; conditions: released from ISPcI at 37±2° C., after 1 and 3 months
# Procedure: (Agilent Technologies UK Ltd, Stockport, UK). […] A plate shaker ensured thorough mixing.
# Due to slow degradation rate of the crosslinked ISPcIs, the drastic drop in local pH is further delayed (unlike PLGA only implants) which is especially important and an advantage in protecting the sensitive molecules such as peptides and proteins. […] For example, an ELISA test was conducted to determine the bioactivity of released OVA from the ISPcI, at 37±2° C., after 1 and 3 months, respectively.
molecule,measurement,setting,value
O=C1OC2(c3ccc(O)cc3Oc3cc(O)ccc32)c2ccccc21 [fluorescein sodium],release of fluorescein sodium from ISPcI implant in the eye (fundus images),[1],slow and continuous release
Bevacizumab [BVZ],BVZ released,[2]; 30% PLGA ISPcI implants UV crosslinked for 30 sec,~100%
same,BVZ released,[2]; 30% PLGA ISPcI implants UV crosslinked for 2.5 min,approximately 41%
Fluorescein isothiocyanate-dextran [FITC-Dextran 150 kDa],% release,[3],~27%
B1,OVA remained active (bioactivity of released OVA by ELISA),[4],~97±2%

# Source: US20230129084A1, “COMPOSITE IMPLANTS” (Re-Vana Therapeutics Ltd., priority 2015, published 2023)
